Reference: patent US5792629A, “Isolated DNA encoding novel protease inhibitory polypeptide” (Mochida Pharmaceutical Co., Ltd., priority 1990, dated 1998)

B1: TL66: polypeptide defined by formula 8; known enzyme-digested fragment of urinary trypsin inhibitor, made in E. coli JE5505 (pM551) (protein)
chain: TVAACNLPIVRGPCRAFIQLWAFDAVKGKCVLFPYGGCQGNGNKFYSEKECREYCGVPGDGDEELL
B2: UTI: urinary trypsin inhibitor purified from human urine (Mochida Pharmaceutical), used as positive control (protein)
chain: AVLPQEEEGSGGGQLVTEVTKKEDSCQLGYSAGPCMGMTSRYFYNGTSMACETFQYGGCMGNGNNFVTEKECLQTCRTVAACNLPIVRGPCRAFIQLWAFDAVKGKCVLFPYGGCQGNGNKFYSEKECREYCGVPGDGDEELLRFSN
modifications: glycoprotein (sugar moieties, as the filing says in general of UTI)
B3: TN70: polypeptide defined by the amino acid sequence of formula 3, purified from culture supernatant of E. coli JE5505 (pM552) (protein)
chain: TVAACNLPIVRGPCRAFIQLWAFDAVKGKCVLFPYGGCQGNGNKFYSEKECREYCGVPGDGDEELLRFSN

Key:
[1] = molecular target: T1, Human trypsin (Homo sapiens, UniProt P07477); experiment: Human trypsin-inhibiting activity, substrate S-2444; assay type: biochemical; settings: purified sample, various concentrations; remaining activity vs buffer control (FIG. 14A-C)
T1 construct: purchased Calbiochem
Experimental: The purified sample obtained in Example 1-(5) was dissolved in 100 μl of distilled water. Concentration of this solution was determined based on its bovine trypsin-inhibiting activity using the aforementioned UTI as a standard. The solution was then diluted to various concentration levels with 0.1% BSA/0.2M triethanolamine-HCl buffer (pH 7.8) for the activity measurement. The aforementioned UTI was also diluted in the same manner.
Using the aforementioned synthetic compound S-2444 as a substrate, human trypsin-inhibiting activities of the diluted test samples and the positive control were measured in accordance with the method of Kassell (Kassell B., Methods in Enzymol., vol 19, pp.84-852, 1970) as follows.
Human trypsin (Calbiochem) was dissolved in 0.001M HCl to a concentration of 1,000 SU/ml and the solution was further diluted with 0.1% BSA/0.2M triethanolamine-HCl buffer (pH 7.8) to prepare 1.25 SU/ml of trypsin solution. 2 mM solution of S-2444 was prepared by dissolving it in distilled water.
(§1) Next, 100 μl of the test sample or positive control was mixed with 100 μl of the trypsin solution. After incubation at 37° C. for 10 minutes, 50 μl of the S-2444 solution was added to the mixture to start the reaction. The reaction was carried out at 37° C. for 20 minutes and then stopped by adding 50 μl of 50% acetic acid solution to the reaction mixture. Thereafter, absorbance at 405 nm was measured using a spectrophotometer.
In this instance, in order to eliminate absorbance of various solutions in the reaction mixture, a blank solution was prepared by mixing 100 μl of the trypsin solution with 50 μl of 50% acetic acid and then with 100 μl of each test sample or the positive control and with 50 μl of the S-2444 solution.
In this figure, human trypsin remaining activity was expressed by percentage based on the absorbance of a control reaction mixture in which 100 μl of 0.1% BSA/0.2M triethanolamine-HCl buffer (pH 7.8) was used instead of the test sample or the positive control.

[2] = molecular target: T2, Human plasma plasmin (Homo sapiens, UniProt P00747); experiment: Plasmin-inhibiting activity, substrate S-2251; assay type: biochemical; settings: purified sample, various concentrations; remaining activity vs buffer control (FIG. 16A-C)
T2 construct: Human plasma plasmin (Sigma Chemical Co.) was dissolved in physiological saline; purchased Sigma Chemical Co; host or cells: human plasma
T2 sequence (P00747 97-810): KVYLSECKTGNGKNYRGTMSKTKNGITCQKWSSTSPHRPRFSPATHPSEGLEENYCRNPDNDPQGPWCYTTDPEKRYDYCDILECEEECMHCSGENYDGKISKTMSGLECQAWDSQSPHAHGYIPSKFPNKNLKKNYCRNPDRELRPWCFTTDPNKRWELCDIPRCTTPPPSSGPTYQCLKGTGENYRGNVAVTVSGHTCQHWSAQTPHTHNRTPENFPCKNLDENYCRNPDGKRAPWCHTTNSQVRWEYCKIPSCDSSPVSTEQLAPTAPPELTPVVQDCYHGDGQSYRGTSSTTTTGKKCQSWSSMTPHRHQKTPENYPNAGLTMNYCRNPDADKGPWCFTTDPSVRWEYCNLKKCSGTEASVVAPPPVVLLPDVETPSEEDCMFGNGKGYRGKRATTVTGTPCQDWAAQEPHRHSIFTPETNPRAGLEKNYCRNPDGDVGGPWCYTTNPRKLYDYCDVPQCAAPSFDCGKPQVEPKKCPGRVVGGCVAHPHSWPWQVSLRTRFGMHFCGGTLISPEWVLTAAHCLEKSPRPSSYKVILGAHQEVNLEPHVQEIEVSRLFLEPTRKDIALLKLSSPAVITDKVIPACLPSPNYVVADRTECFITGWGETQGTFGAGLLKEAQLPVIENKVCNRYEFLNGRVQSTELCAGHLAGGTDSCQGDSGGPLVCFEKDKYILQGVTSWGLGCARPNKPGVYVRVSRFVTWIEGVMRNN
Experimental: The purified sample obtained in Example 1-(5) was dissolved in 100 μl of distilled water. Concentration of this solution was determined based on its bovine trypsin-inhibiting activity using the aforementioned UTI as a standard. The solution was then diluted to various concentration levels with 0.11M NaCl/50 mM Tris-HCl buffer (pH 7.4) for use in the activity measurement. The UTI was also diluted in the same manner. Using a synthetic compound S-2251 (Daiichi Pure Chemicals Co., Ltd.) as a substrate, human plasmin-inhibiting activities of the diluted test samples and the positive control were measured in accordance with the method of Friberger et al. (Friberger,P. et al., Haemostasis, vol.7, pp.138-145, 1978).
Human plasma plasmin (Sigma Chemical Co.) was dissolved in physiological saline to a concentration of 1 U/ml and the solution was further diluted with 50% glycerol/2 mM HCl solution to prepare 0.1 U/ml of plasmin solution. 3.5 mM solution of S-2251 was prepared by dissolving it in distilled water.
as §1, with “Next, 50” for “Next, 100”, “with 50 μl of the plasmin solution and” for “with”, “of 0.11M NaCl/50 mM Tris-HCl buffer (pH 7.4).” for “of the trypsin solution.”, “the S-2251” for “the S-2444”, “for 2” for “for 20”, “adding 25” for “adding 50”
In this instance, in order to eliminate absorbance of various solutions in the reaction mixture, a blank solution was prepared by mixing 50 μl of the plasmin solution with 25 μl of 50% acetic acid and then with 50 μl of each test sample or the positive control, 100 μl of 0.11M NaCl/50 mM Tris-HCl buffer (pH 7.4) and with 50 μl of the S-2251 solution.
In this figure, human plasmin remaining activity was expressed by percentage based on the absorbance of a control reaction mixture in which 50 μl of 0.11M NaCl/50 mM Tris-HCl buffer (pH 7.4) was used instead of the test sample or the positive control.

[3] = system: ORTHO Plasma Coagulation Control Level 1; experiment: Measurement of activated partial thromboplastin time (aPTT); settings: for effect on aPTT, anticoagulant activity: conclusion from Table 1; for aPTT (%): aPTT of distilled water control taken as 100%
Experimental: The COAGTEC (TE-600, ERMA OPTICAL WORKS LTD), a measurement instrument, was used and the following operation was conducted at 37° C. to measure the effect of polypeptide of the present invention on activated partial thromboplastin time (hereinafter abbreviated as aPTT).
First, purified samples obtained in Example 1 (5), Example 2 (5) and Example 3 (4) were dissolved in 100 μl of distilled water. Concentration of each solution was determined based on bovine trypsin-inhibiting activity using UTI as a standard. Each solution was then diluted to various concentration levels for activity measurement.
Afterward, 50 μl of the ORTHO Plasma Coagulation Control Level 1 (Ortho Diagnostic Systems Co., Ltd.) was put into glass tubes. 50 μl of the sample or 50 μl of distilled water as control was added. Furthermore, 100 μl of the Activated THROMBOFAX Reagent-Optimized (Ortho Diagnostic Systems Co., Ltd.) was added and then each glass tube was set in the apparatus. 100 μl of 0.02M CaCl2 was then added to each glass tube for the measurement, and aPTT for each test samples and the control was obtained.
The aPTT values of the samples are described in percentage when taking the aPTT value of control as 100%.

Row | Molecule | human trypsin-inhibiting activity [1] | human plasmin-inhibiting activity [2] | effect on aPTT, anticoagulant activity [3] | aPTT (%) ([3]; final concentration 33 U/ml) | aPTT (%) ([3]; final concentration 167 U/ml)
1 | CC51: polypeptide defined by the amino acid sequence of formula 1, purified from culture supernatant of E. coli JE5505 (pM560) (CNLPIVRGPCRAFIQLWAFDAVKGKCVLFPYGGCQGNGNKFYSEKECREYC) | activity was found | activity was found | have an effect to extend aPTT and anticoagulant activity | 172 | 256
2 | B1 | activity was found | activity was found | have an effect to extend aPTT and anticoagulant activity | 157 | 239
3 | B2 | activity was found | activity was found | – | – | –
4 | B3 | activity was found | activity was found | have an effect to extend aPTT and anticoagulant activity | 155 | 230
